Measurements as given in publication PMC4854314, “RNA protects a nucleoprotein complex against radiation damage” (Acta Crystallographica. Section D, Structural Biology, 2016).

Molecular target: the molecule itself
Assay: crystal structure; TRAP-RNA crystals, hanging drop, 2:1 molar ratio of TRAP to RNA, 70 mM potassium phosphate pH 7.8, 10 mM L-tryptophan; data collected at 100 K, 1.98 Å; asymmetric unit holds one RNA-bound and one non-RNA-bound TRAP ring

B1: trp RNA-binding attenuation protein (TRAP) from B. stearothermophilus (natural protein)
chain: MYTNSDFVVIKALEDGVNVIGLTRGADTRFHHSEKLDKGEVLIAQFTEHTSAIKVRGKAYIQTRHGVIESEGKK
notes: construct as in Hopcroft et al., 2002 (PDB 1gtf); 11 identical subunits form a ring; also called TRAP ring; source: overexpressed in Escherichia coli and purified; copies: 11
  stoichiometry N: 11
